The record followed here is PMC2943043 (Journal of neuroimmunology, 2010).

This assay deals with Human recombinant voltage-dependent anion channel (human, UniProt P21796 1-283). The assay is described as follows: radioligand binding.
Sequence of Human recombinant voltage-dependent anion channel (P21796 whole entry): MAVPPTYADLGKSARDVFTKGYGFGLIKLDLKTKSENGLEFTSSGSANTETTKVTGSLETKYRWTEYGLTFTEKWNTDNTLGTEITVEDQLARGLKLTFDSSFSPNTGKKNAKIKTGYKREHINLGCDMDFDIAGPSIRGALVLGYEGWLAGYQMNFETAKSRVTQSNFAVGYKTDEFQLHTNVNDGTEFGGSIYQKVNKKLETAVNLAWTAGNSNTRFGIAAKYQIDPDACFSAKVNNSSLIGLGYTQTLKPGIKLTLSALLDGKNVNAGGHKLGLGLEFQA

For MIAAQLLAYYFTELKDDQVKKC [HK-I peptide Met1-Lys21 (P2)], the binding result was “binds”.
